{"source": "the supplement of paper PMC7125110", "parents": {"B1": {"name": "glmS ribozyme (parent)", "chain": "AUAAAAGCGCCAGAACUACAGAAAUGUAGUUGACGAGGAGGAGGUUUAUCGAAUUUUCGGCGGAUGCCUCCAAA"}}, "note": "± gives the standard error. Fewer inactive variants are shown than the library holds."}
{"variants_of": "B1", "experiment": "self-cleavage kobs at 2500 uM GlcN6P; higher = faster cleavage; RNA array", "settings": "with glucosamine-6-phosphate", "summary_of_the_method": "(§1)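 E. coli RNA polymerase transcribed barcoded ribozyme variants in situ on sequenced MiSeq chips, which were tracked via a hybridised Cy3 probe at 37 °C. Tiles were imaged over ~14 h after glucosamine-6-phosphate (40 μM to 10 mM) in HEPES/KCl/Mg(OAc)2 buffer was flowed in. Normalised per-tile medians were fit to one- or two-exponential decays for kobs, and kcat and KM came from weighted Michaelis–Menten fits.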", "units": {"self-cleavage kobs at 2500 uM GlcN6P": "s⁻¹"}}
{"variant": "C8G C16G U56A", "self-cleavage kobs at 2500 uM GlcN6P": "< 1e-05"}
{"variant": "G29U G38C U56G", "self-cleavage kobs at 2500 uM GlcN6P": "< 1e-05"}
{"variant": "A14U U30A C71G", "self-cleavage kobs at 2500 uM GlcN6P": "5.1e-05 ± 1.2e-05"}
{"variant": "G9U C11U G29U A52U", "self-cleavage kobs at 2500 uM GlcN6P": "< 1e-05"}
{"variant": "U31A G32U U45G", "self-cleavage kobs at 2500 uM GlcN6P": "0.000148 ± 5.6e-05"}
{"variant": "C10A G13U A36U U55C C67U", "self-cleavage kobs at 2500 uM GlcN6P": "< 1e-05"}
{"variant": "G38A C50G G59U C61A C67G", "self-cleavage kobs at 2500 uM GlcN6P": "8.22e-05 ± 2.2e-05"}
{"variant": "A39U A48G U57A G60U C70G", "self-cleavage kobs at 2500 uM GlcN6P": "< 1e-05"}
{"variant": "A6U A12U U54G", "self-cleavage kobs at 2500 uM GlcN6P": "0.000203 ± 6e-05"}
{"variant": "A42U U54C C70A", "self-cleavage kobs at 2500 uM GlcN6P": "7.14e-05 ± 2.1e-05"}
{"variant": "G13A U31G A36G", "self-cleavage kobs at 2500 uM GlcN6P": "< 1e-05"}
{"variant": "G44C C58G G63A C67G", "self-cleavage kobs at 2500 uM GlcN6P": "< 1e-05"}
{"variant": "G13A A14U U56A", "self-cleavage kobs at 2500 uM GlcN6P": "0.000412 ± 0.0001"}
{"variant": "G13U A14G A36G U55A", "self-cleavage kobs at 2500 uM GlcN6P": "< 1e-05"}
{"variant": "A18U", "self-cleavage kobs at 2500 uM GlcN6P": "0.00664 ± 0.0014"}
{"variant": "A15U G44A A48C U56A C70A", "self-cleavage kobs at 2500 uM GlcN6P": "< 1e-05"}
{"variant": "C11A U31A A33G", "self-cleavage kobs at 2500 uM GlcN6P": "< 1e-05"}
{"variant": "A33U A64C C70A", "self-cleavage kobs at 2500 uM GlcN6P": "< 1e-05"}
{"variant": "A42G A48U U54G", "self-cleavage kobs at 2500 uM GlcN6P": "0.000367 ± 0.0001"}
{"variant": "C16U G43A C67A U69A", "self-cleavage kobs at 2500 uM GlcN6P": "6.4e-05 ± 2.1e-05"}
{"variant": "A33U C34A G44U A52C", "self-cleavage kobs at 2500 uM GlcN6P": "< 1e-05"}
{"variant": "C10U G51C G59U C67U", "self-cleavage kobs at 2500 uM GlcN6P": "< 1e-05"}
{"variant": "C19A A42C", "self-cleavage kobs at 2500 uM GlcN6P": "< 1e-05"}
{"variant": "A14C A15C A36U G37U U49A", "self-cleavage kobs at 2500 uM GlcN6P": "< 1e-05"}
{"variant": "C8U U54A C58G", "self-cleavage kobs at 2500 uM GlcN6P": "< 1e-05"}
{"variant": "A14C U31G A64C", "self-cleavage kobs at 2500 uM GlcN6P": "6.13e-05 ± 2.2e-05"}
{"variant": "A6C A15U G43A C71U", "self-cleavage kobs at 2500 uM GlcN6P": "< 1e-05"}
{"variant": "G41U G44U C67U U69G", "self-cleavage kobs at 2500 uM GlcN6P": "< 1e-05"}
{"variant": "A64C G66A", "self-cleavage kobs at 2500 uM GlcN6P": "4.39e-05 ± 1.4e-05"}
{"variant": "C11U G43U U47G", "self-cleavage kobs at 2500 uM GlcN6P": "< 1e-05"}
{"variant": "C16A G29A C70A", "self-cleavage kobs at 2500 uM GlcN6P": "6.39e-05 ± 2.4e-05"}
{"variant": "C8A C10U G32A A48G", "self-cleavage kobs at 2500 uM GlcN6P": "< 1e-05"}
{"variant": "A33U G43U U54A G60A", "self-cleavage kobs at 2500 uM GlcN6P": "< 1e-05"}
{"variant": "G7U G9U U31C U56C", "self-cleavage kobs at 2500 uM GlcN6P": "< 1e-05"}
{"variant": "U30A U46G C68G", "self-cleavage kobs at 2500 uM GlcN6P": "0.000143 ± 6.7e-05"}
{"variant": "C8G G9U A14U A15U A64G C70U", "self-cleavage kobs at 2500 uM GlcN6P": "< 1e-05"}
{"variant": "G13C A14G U46A", "self-cleavage kobs at 2500 uM GlcN6P": "5.24e-05 ± 1.3e-05"}
{"variant": "C11U A64U C68U C71U", "self-cleavage kobs at 2500 uM GlcN6P": "< 1e-05"}
{"variant": "G43A A53G G60U C70U", "self-cleavage kobs at 2500 uM GlcN6P": "< 1e-05"}
{"variant": "C50A A53G C58G C68A", "self-cleavage kobs at 2500 uM GlcN6P": "0.000108 ± 3.9e-05"}
{"variant": "C10A G35A G40C", "self-cleavage kobs at 2500 uM GlcN6P": "< 1e-05"}
{"variant": "C10U U31A A39U G51C", "self-cleavage kobs at 2500 uM GlcN6P": "< 1e-05"}
{"variant": "G41U U55C C61G", "self-cleavage kobs at 2500 uM GlcN6P": "< 1e-05"}
{"variant": "C8G C11A G43A", "self-cleavage kobs at 2500 uM GlcN6P": "< 1e-05"}
{"variants_of": "B1", "experiment": "self-cleavage kobs at 10000 uM GlcN6P; higher = faster cleavage; RNA array", "settings": "with glucosamine-6-phosphate", "summary_of_the_method": "as §1", "units": {"self-cleavage kobs at 10000 uM GlcN6P": "s⁻¹"}}
{"variant": "G13A A14U U56A", "self-cleavage kobs at 10000 uM GlcN6P": "0.000631 ± 0.00023"}
